Reference: patent US11214614B2, “LTBP complex-specific inhibitors of TGFβ and uses thereof” (Scholar Rock, Inc., priority 2019, dated 2022)
Residue numbers refer to the chain shown, from its start.

B1: SR-AB55 Fab (antibody, V domains shown)
VH: QVQLVESGGGVVQPGRSLRLSCAASGFTFRSYVMHWVRQAPGKGLEWVAVISHEGSGKYYADSVKGRFTISRDNSKNTLYLQMNSLRAEDTAVYYCALPRIAARRGGFGSWGQGTLVTVSS
VL: NFMLTQPHSVSESPGKTVTISCTRSSGNIDYNYVQWYQQRPGSSPTTVIYEDNVRPSGVPDRFSGSIDSSSNSASLTISGLKTEDEADYYCQSYDYDNQAVVFGGGTKLTVL
B2: SR-AB57 Fab (antibody, V domains shown)
VH: B1 VH
VL: B1 VL with S93G, Y96W, N98T, A100G
B3: SR-AB53 Fab (antibody, V domains shown)
VH: B1 VH with L98R, S110T
VL: B1 VL with S93G, Y96W, N98T, A100G
B4: SR-AB50 Fab (antibody, V domains shown)
VH: B1 VH with L98R, S110T
VL: B1 VL with Y96S, A100R
B5: SR-AB54 Fab (antibody, V domains shown)
VH: B1 VH
VL: B1 VL with Y96S, A100R
B6: SR-AB59 Fab (antibody, V domains shown)
VH: B1 VH with S110T
VL: B1 VL
B7: SR-AB23 Fab (antibody, V domains shown)
VH: B1 VH with G57L, L98R, S110Y
VL: B1 VL with Y31N, V54Q, Y96S, A100G
B8: SR-AB60 Fab (antibody, V domains shown)
VH: B1 VH with S110T
VL: B1 VL with N98T, A100G
B9: SR-AB47 Fab (antibody, V domains shown)
VH: B1 VH with L98R
VL: B1 VL
B10: SR-AB42 Fab (antibody, V domains shown)
VH: B1 VH with G57L, L98R, S110Y
VL: B1 VL with Y31N, V54Q, N98T, A100G
B11: SR-Ab56 Fab (antibody, V domains shown)
VH: B1 VH
VL: B1 VL with N98T, A100G
B12: SR-AB49 Fab (antibody, V domains shown)
VH: B1 VH with L98R
VL: B1 VL with S93G, Y96W, N98T, A100G
B13: SR-AB52 Fab (antibody, V domains shown)
VH: B1 VH with L98R, S110T
VL: B1 VL with N98T, A100G
B14: SR-AB58 Fab (antibody, V domains shown)
VH: B1 VH with S110T
VL: B1 VL with Y96S, A100R

The molecules below were run on proTGFβ1 presented by endogenous LTBP1/3 in LN229 cells (assay: Endogenous LTBP caga assay: LN229 cells transfected with human proTGFβ1 only, CAGA12 luciferase reporter cells). Conditions: Table 20: protocol of Example 10 with Fabs (RefAb also as hIgG4), assay format not stated.
Sequence of proTGFβ1 presented by endogenous LTBP1/3 in LN229 cells (P01137 30-390): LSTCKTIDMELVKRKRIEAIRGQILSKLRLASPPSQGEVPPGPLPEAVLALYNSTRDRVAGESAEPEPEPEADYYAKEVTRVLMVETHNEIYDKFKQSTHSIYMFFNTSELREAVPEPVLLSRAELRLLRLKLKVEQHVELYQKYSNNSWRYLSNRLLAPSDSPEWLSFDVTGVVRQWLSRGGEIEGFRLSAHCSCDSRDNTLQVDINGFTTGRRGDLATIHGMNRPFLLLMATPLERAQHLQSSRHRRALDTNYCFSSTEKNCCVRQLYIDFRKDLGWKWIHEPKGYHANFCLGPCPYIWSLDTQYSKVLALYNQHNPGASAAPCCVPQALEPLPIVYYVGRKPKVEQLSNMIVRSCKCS
Format: cell-based
B1 gave an IC50 of 536 pM. B2 was tested, and the IC50 was 775 pM. Molecule B3 has an IC50 of 1180 pM. With B4 the IC50 was 11000 pM. Work on B5 yielded an IC50 of 5870 pM. For B6, the IC50 was 195 pM. Work on B7 yielded an IC50 of 8530 pM. In the case of B8, the IC50 is reported as 742 pM. In the case of B9, the IC50 is reported as 186 pM. In the case of B10, the IC50 is reported as 668 pM. With B11 the IC50 was 439 pM. For B12, the IC50 was 1020 pM. With B13 the IC50 was 459 pM. With B14 the IC50 was 4860 pM.
